Data as given in PMC5986797, “Laminin heparin-binding peptides bind to several growth factors and enhance diabetic wound healing” (Nature Communications, 2018).

Experiments:
Conditions in all cases: both partners purified
[1] = target: T1, recombinant human laminin-111 (human, UniProt P25391 18-3075; P07942 22-1786; P11047 34-1609); experiment: ELISA; plates coated with 50 nM GF or chemokine in PBS; 10 nM laminin isoform in PBS added; bound laminin detected with anti-LAMC1 or anti-LAMA3 polyclonal antibody; A450 signals greater than 0.1 taken as binding; BSA-coated wells as control
T1 construct: laminin subunit alpha-1, human; chain told by the isoform's name; laminin subunit beta-1, human; laminin subunit gamma-1, human; source: bought: BioLamina (recombinant human, >95% purity); copies: + +

[2] = target: T2, recombinant human laminin-211 (human, UniProt P24043 23-3122; P07942 22-1786; P11047 34-1609); experiment: as above
T2 construct: laminin subunit alpha-2, human; chain told by the isoform's name; laminin subunit beta-1, human; laminin subunit gamma-1, human; source: bought: BioLamina (recombinant human, >95% purity); copies: + +

[3] = target: T3, recombinant human laminin-521 (human, UniProt O15230 36-3695; P55268 33-1798; P11047 34-1609); experiment: SPR; laminin-521 immobilised by amine coupling on a C1 chip (~2000 RU); GF flown at 20 μL/min in 0.01 M HEPES pH 7.4, 0.15 M NaCl, 0.005% surfactant P20; Langmuir binding kinetics
T3 construct: laminin subunit alpha-5, human; chain told by the isoform's name; laminin subunit beta-2, human; laminin subunit gamma-1, human; also called laminin isoform-521; source: bought: BioLamina (recombinant human, >95% purity); copies: + +

[4] = target: T4, recombinant laminin LAMA3_(2928–3150) protein (human, UniProt Q16787 2928-3150); experiment: SPR; LAMA3 2928–3150 immobilised by amine coupling on a C1 chip (~1000 RU); GF flown at 20 μL/min in 0.01 M HEPES pH 7.4, 0.15 M NaCl, 0.005% surfactant P20; Langmuir binding kinetics
T4 construct: laminin subunit alpha-3, human, LG domain Ser2928-Cys3150 (linker domain and LG4 domain); also called laminin alpha 3 LG domain recombinant protein; source: HEK-293F, transfected, purified from culture medium (HisTrap, size-exclusion chromatography)
T4 sequence (looked up): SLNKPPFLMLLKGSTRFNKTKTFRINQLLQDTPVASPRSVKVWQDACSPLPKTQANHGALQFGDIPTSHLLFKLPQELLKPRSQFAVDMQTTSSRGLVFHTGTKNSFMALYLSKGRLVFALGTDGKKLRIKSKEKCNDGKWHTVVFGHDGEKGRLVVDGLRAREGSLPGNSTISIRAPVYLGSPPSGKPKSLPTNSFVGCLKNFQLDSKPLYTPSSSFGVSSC

B1: platelet-derived growth factor PDGF-BB (ligand, human, UniProt P01127 82-190, looked up)
chain: SLGSLTIAEPAMIAECKTRTEVFEISRRLIDRTNANFLVWPPCVEVQRCSGCCNNRNVQCRPTQVQLRPVQVRKIEIVRKKPIFKKATVTLEDHLACKCETVAAARPVT
notes: platelet-derived growth factor subunit B, human, bought in its mature form; a homodimer by its name; source: bought: PeproTech; produced in Escherichia coli
[1]
  binding result: binds
[2]
  binding result: binds
[3]
  Kd: 24.2 nM
[4]
  Kd: 10.2 nM
